The text below walks through data of publication PMC9779928, “Tartrate resistant acid phosphatase 5 (TRAP5) mediates immune cell recruitment in a murine model of pulmonary bacterial infection” (Frontiers in Immunology, 2022).

Ends that are not written are not given here.

For experiment [1], the target named is T1, phosphorylated osteopontin (recombinant human OPN derived from HEK293 cells) (human, UniProt P10451 17-314, phosphorylated (sites not given; phosphorylation pattern in Supplementary Figure 2)).
T1 construct: osteopontin (OPN), human, recombinant, expressed in HEK293 cells; Commercial protein; From a eukaryotic host, so it probably differs from dOPN in glycosylation as well as in phosphorylation; also called pOPN; SPP1; source: bought: Peprotech (expressed in HEK293 cells; purity >= 97% according to the manufacturer)
T1 sequence (P10451 17-314): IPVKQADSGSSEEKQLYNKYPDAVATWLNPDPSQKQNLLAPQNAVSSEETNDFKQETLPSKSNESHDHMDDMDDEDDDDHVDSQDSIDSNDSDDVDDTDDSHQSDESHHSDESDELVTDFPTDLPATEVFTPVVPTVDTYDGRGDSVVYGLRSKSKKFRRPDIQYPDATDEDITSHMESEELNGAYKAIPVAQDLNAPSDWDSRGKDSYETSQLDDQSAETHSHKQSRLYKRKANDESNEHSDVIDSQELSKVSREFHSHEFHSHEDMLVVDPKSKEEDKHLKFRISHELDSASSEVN
Description: SPR; hBD3, SLPI and LL37 immobilised in different flow cells (50 ug/mL in 10 mM sodium acetate pH 5.5); dOPN or pOPN flowed at 10 uL/min; BIAcore X100, 25°C, HBS-EP (10 mM HEPES, 150 mM NaCl, 3 mM EDTA, 0.05% surfactant P20, pH 7.4); Langmuir model. The settings on record: both partners purified.

For experiment [2], the target named is T2, dephosphorylated (non-phosphorylated) osteopontin (recombinant human OPN expressed in E. coli) (human, UniProt P10451 17-314).
T2 construct: osteopontin (OPN), human, recombinant, expressed in E. coli, non-phosphorylated; Commercial protein; Called 'dephosphorylated' but it is simply made in E. coli (non-phosphorylated), not treated with a phosphatase; also called dOPN; SPP1; source: bought: Abcam (expressed in E. coli; purity >= 90% according to the manufacturer)
T2 sequence (P10451 17-314): as above
Described as above. The settings on record: both partners purified.

B1: secretory leukocyte protease inhibitor (natural protein, UniProt P03973 26-132, looked up)
chain: SGKSFKAGVCPPKKSAQCLRYKKPECQSDWQCPGKKRCCPDTCGIKCLDPVDTPNPTRRKPGKCPVTYGQCLMLNPPNFCEMDGQCKRDLKCCMGMCGKSCVSPVKA
notes: Commercial protein; also called SLPI; source: bought: Abcam
For B1, the Kd came to 6.25 nM in experiment [1] and 4650 nM in experiment [2].

B2: human β-defensin-3 (peptide, UniProt P81534 23-67, looked up)
chain: GIINTLQKYYCRVRGGRCAVLSCLPKEEQIGKCSTRGRKCCRRKK
modifications: ends and bridges not checked; cysteine pairing not given here
notes: human beta-defensin 3 (hBD-3), antimicrobial peptide; also called hBD3; hBD-3; source: bought: Abcam
Consider B2, for which the Kd turned out to be 6.5 nM in experiment [1] and 83.8 nM in experiment [2].

As a reminder, the Kd is the concentration at which binding is half-saturated.
